Results from patent US20060269550A1 (published 2006).
Where no end group is shown, it is not given here. The star is where a group is joined. Octanoyl = CCCCCCCC(=O)*

T1: rat ghrelin (full length, acylated) (rat, UniProt Q9QYH7 24-51, acylated (group and position not restated for the rat peptide))
T1 construct: mature; the assay used the full-length ghrelin peptide
T1 peptide (looked up): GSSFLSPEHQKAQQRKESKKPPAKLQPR

B1: anti-hGhrelin Fab 2291 (Fab, V domains shown)
VH: EIQLQQSGAELMKPGASVKLSCKATGYTFTGYWIEWAKQRPGHGLEWIGEILPGSGSTNYNEKFKGKATFTADTSSNTANMQLSSLTTEDSAIYYCARYPQFRLRRERIAYWGQGTLVTVSV
VL: DLVLTQSPASLAVSLGQRATISCRASKSVSTSGYSYMHWYQQKPGQPPKLLIYLASNLEPGVPARFSGSGSGTDFTLNIHPVEEEDAATYYCQHSRELPYTFGAGTKLELKR
notes: Mouse Fab, kappa light chain
B2: Ghrelin (1-8), the first eight amino acids of human ghrelin acylated, via an ester linkage, with an octanoyl group on the serine at position 3 (peptide)
peptide: GSS(Octanoyl)FLSPE
notes: also called human ghrelin amino acids 1-8 acylated with octanoic acid

Experiments:
[1] = molecular target: T2, full-length human ghrelin acylated with an octanoyl group on the serine at position 3 (human, n-octanoyl group on Ser 3); assay: cell-based or functional assay
T2 sequence (peptide, as listed by the source): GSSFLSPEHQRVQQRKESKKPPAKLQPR

[2] = molecular target: B2; assay: inferred by the filing from inhibition of the analog in the FLPR calcium assay
[3] = molecular target: T2, full-length human ghrelin acylated with …; assay: SPR, BIAcore 2000, 25 C; Fab captured by goat anti-mouse kappa, ghrelin as analyte; koff/kon, average of three
Procedure: (§1) The BIAcore® utilizes the optical properties of surface plasmon resonance to detect alterations in protein concentration of interacting molecules within a dextran biosensor matrix. Except where noted, all reagents and materials were purchased from BIAcore® AB (Upsala, Sweden). All measurements were performed at 25° C. Samples containing rat or human ghrelin (full length, acylated) were dissolved in HBS-EP buffer (150 mM sodium chloride, 3 mM EDTA, 0.005% (w/v) surfactant P-20, and 10 mM HEPES, pH 7.4). A capture antibody, goat anti-mouse Kappa (Southern Biotechnology, Inc), was immobilized onto flow cells using amine-coupling chemistry. Flow cells (1-4) were activated for 7 minutes with a 1:1 mixture of 0.1 M N-hydroxysuccinimide and 0.1 M 3-(N,N-dimethylamino)propyl-N-ethylcarbodiimide at a flow rate of 10 μl/min. Goat anti-mouse Kappa (30 μg/mL in 10 mM sodium acetate, pH 4.5) was manually injected over all 4 flow cells at a flow rate of 10 μL/min. The surface density was monitored and additional goat anti-mouse Kappa was injected if needed to individual cell until all flow cells reach a surface density of 4500-5000 response units (RU). Surfaces were blocked with a 7 minute injection of 1 M ethanolamine-HCl, pH 8.5(10 μL/min). To ensure complete removal of any noncovalently bound goat anti-mouse Kappa, 15 μL of 10 mM glycine, pH 1.5 was injected twice. Running buffer used for kinetic experiments contained 10 mM HEPES, pH 7.4, 150 mM NaCl, 0.005% P20.
(§2) Collection of kinetic binding data was performed at maximum flow rate (100 μL/min) and a low surface density to minimize mass transport effects.

[4] = molecular target: T1, rat ghrelin (full length, acylated); assay: SPR, BIAcore 2000, 25 C; Fab captured by goat anti-mouse kappa, rat ghrelin as analyte; koff/kon, average of three
Procedure: as §1, §2

anti-hGhrelin Fab 2291 [5] = molecular target: B1; assay: competitive ELISA; competitor at 1 µg/ml preincubated with Fab 2291 0.1 µg/ml, OD of Fab bound to BSA-hGhrelin wells
Procedure: (§3) Each well of a 96-well plate was coated with 60 μl BSA-hGhrelin antigen (i.e., BSA conjugated, full-length, acylated human ghrelin, 2 μg/ml in carbonate buffer, pH 9.6). The plate was incubated at 4° C. overnight. The wells were aspirated and washed twice with washing buffer (20 mM Tris-Cl, pH 7.4, 0.15 M NaCl, 0. 1% Tween 20). Compounds (i.e., human ghrelin or ghrelin analogs) were diluted into antibody solution. The antibody solution was mouse-anti-human ghrelin Fab. The ghrelin competitor concentration was varied as listed in Tables 2 and 3 below, but the Fab-concentration was kept constant at 0.1 μg/ml in blocking solution (10 mg/ml BSA in wash buffer). After a 1 hour incubation at room temperature, 50 μl of compound-antibody solution was added to BSA-hGhrelin coated wells in triplicate. The plates were incubated for 1 hour at room temperature. The wells were then washed three times with washing buffer.
(§4) Peroxidase-conjugated secondary antibody (50 μl goat anti-mouse kappa HRP (Southern Biotech), diluted 1:2000 in blocking buffer) was added to each well and incubated for 1 hour at room temperature. The wells were then washed 4 times with washing buffer. Fifty microliters of chromogenic substrate (i.e., OPD substrate) was added to each well and allowed to develop at room temperature for 10 minutes. […] The absorbance of the wells was read at 490 nm. […]

anti-hGhrelin Fab 2291 [6] = molecular target: B1; assay: competitive ELISA; competitor at 5 µg/ml preincubated with Fab 2291 0.1 µg/ml, OD of Fab bound to BSA-hGhrelin wells
Procedure: as §3, §4

anti-hGhrelin Fab 2291 [7] = molecular target: B1; assay: competitive ELISA; competitor at 0.2 µg/ml preincubated with Fab 2291 0.1 µg/ml, OD of Fab bound to BSA-hGhrelin wells
Procedure: as §3, §4

IC50 (nM), FLPR calcium assay on AV12 cells expressing human GHS-R1a [1] [nM]	binding result [2]	Kd [3] [nM]	Kd [4] [nM]	Ave. OD (anti-hGhrelin Fab 2291 [5]) [OD]	Ave. OD (anti-hGhrelin Fab 2291 [6]) [OD]	Ave. OD (anti-hGhrelin Fab 2291 [7]) [OD]	Binder
0.9	binds	1.01	1.16	–	–	–	anti-hGhrelin Fab 2891 (Fab, V domains shown, Mouse Fab, kappa light chain) VH: EIQLQQSGAELMKPGASVKLSCKATGYTFTGYWIEWVKQRPGHGLEWIGEILPGSGSTNYNEKFKGKATFTADTSSNTANMQLSSLTTEDSAIYYCARYPQFRLRRERIAYWGQGTLVTVSV VL: DLVLTQSPASLAVSLGQRATISCRASKSVSTSGYSYMHWYQQKPGQPPKLLIYLASNLESGVPARFSGSGSGTDFTLNIHPVEEEDAATYYCQHSRELPYTFGAGTKLELKR
1.1	binds	1.04	1.14	–	–	–	anti-hGhrelin Fab 1111 (Fab, V domains shown, Mouse Fab from an Omniclonal library (immunised C57Bl/6 mice); kappa light chain (detected or captured with goat anti-mouse kappa)) VH: EIQLQQSGAELMKPGASVKLSCKATGYIFTGYWIEWVKQRPGHGLEWIGEILPGSGSTNYNEKFKGKATFTADTSSNTANMQLSSLTTEDSAIYYCARYPQFRLRRERIAYWGQGTLVTVSV VL: DLVLTQSPASLAVSLGQRATISCRASKSVSTSGYSYMHWYQQKPGQPPKLLIYLASNLESGVPARFSGSGSGTDFTLNIHPVEEEDAATYYCQHSRELPYTFGAGTKLELKR
0.8	binds	1.08	1.68	–	–	–	B1
1.9	binds	3.38	5.42	–	–	–	anti-hGhrelin Fab 2211 (Fab, V domains shown, Mouse Fab, kappa light chain) VH: EIQLQQSGAELMRPGASVKLSCKATGYTFTGYWIEWVKQRPGHGLEWIGEILPGSGSTNYNEKFKGKATFTADTSSNTANMQLSSLTTEDSAIYYCARYPQFGLRRERIAYWGQGTLVTVSV VL: DLVLTQSPASLAVSLGQRATISCRASKSVSTSGYSYMHWYQQKPGQPPKLLIYLASNLESGVPARFSGSGSGTDFTLNIHPVEEEDAATYYCQHSRELPYTFGAGTKLELKR
–	–	–	–	0.127	0.065	0.399	B2
